# Test results: patent publication EP3350599B1
# Legend:
# [1] = target: purified bone alkaline phosphatase from calf intestinal mucosa (AP; Santa Cruz sc-3716 - CAS9001-78-9) (calf) (UniProt P19111); test: capture ELISA, coated antibody, AP calibrator at 100 ng/ml, bound enzyme read with pNPP
# [2] = target: purified bone alkaline phosphatase from calf intestinal mucosa (AP; Santa Cruz sc-3716 - CAS9001-78-9) (calf) (UniProt P19111); test: capture ELISA, coated antibody, AP calibrator at 50 ng/ml, bound enzyme read with pNPP
# [3] = target: purified bone alkaline phosphatase from calf intestinal mucosa (AP; Santa Cruz sc-3716 - CAS9001-78-9) (calf) (UniProt P19111); test: capture ELISA, coated antibody, AP calibrator at 6.25 ng/ml, bound enzyme read with pNPP
# [4] = target: purified bone alkaline phosphatase from calf intestinal mucosa (AP; Santa Cruz sc-3716 - CAS9001-78-9) (calf) (UniProt P19111); test: capture ELISA, coated antibody, AP calibrator at 3.125 ng/ml, bound enzyme read with pNPP
# [5] = target: purified bone alkaline phosphatase from calf intestinal mucosa (AP; Santa Cruz sc-3716 - CAS9001-78-9) (calf) (UniProt P19111); test: capture ELISA, coated antibody, AP calibrator at 25 ng/ml, bound enzyme read with pNPP
# [6] = target: purified bone alkaline phosphatase from calf intestinal mucosa (AP; Santa Cruz sc-3716 - CAS9001-78-9) (calf) (UniProt P19111); test: capture ELISA, coated antibody, AP calibrator at 12.5 ng/ml, bound enzyme read with pNPP
# Sequence of UniProt P19111 (P19111 20-506): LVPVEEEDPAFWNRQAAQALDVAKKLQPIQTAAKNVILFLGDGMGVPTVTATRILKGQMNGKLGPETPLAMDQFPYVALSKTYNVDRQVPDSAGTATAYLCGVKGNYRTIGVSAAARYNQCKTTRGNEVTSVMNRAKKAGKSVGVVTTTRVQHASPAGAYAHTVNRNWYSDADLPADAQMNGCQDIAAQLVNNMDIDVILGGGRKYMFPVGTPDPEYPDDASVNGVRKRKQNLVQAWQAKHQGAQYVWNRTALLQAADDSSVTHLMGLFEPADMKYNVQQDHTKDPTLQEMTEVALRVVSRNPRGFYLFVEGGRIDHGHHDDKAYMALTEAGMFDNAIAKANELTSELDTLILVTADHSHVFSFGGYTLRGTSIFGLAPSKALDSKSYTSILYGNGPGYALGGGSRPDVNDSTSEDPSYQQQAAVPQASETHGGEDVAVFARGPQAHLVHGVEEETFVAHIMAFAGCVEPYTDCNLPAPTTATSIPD
substance,measurement,setting,value
anti-BAP polyclonal IgG antibody (produced in sheep) specific for bone alkaline phosphatase (Abcam Ab68716),"Abs. 415 nm, Abs. (1)",[1],1.09 Abs. 415 nm
same,"Abs. 415 nm, Abs. (2)",[1],1.03 Abs. 415 nm
same,"Abs. 415 nm, Abs. (3)",[1],1.12 Abs. 415 nm
same,Mean Abs. 415 nm,[1],1.08 Abs. 415 nm
same,"Abs. 415 nm, Abs. (1)",[2],0.628 Abs. 415 nm
same,"Abs. 415 nm, Abs. (2)",[2],0.501 Abs. 415 nm
same,"Abs. 415 nm, Abs. (3)",[2],0.476 Abs. 415 nm
same,Mean Abs. 415 nm,[2],0.535 Abs. 415 nm
same,"Abs. 415 nm, Abs. (1)",[3],0.11 Abs. 415 nm
same,"Abs. 415 nm, Abs. (2)",[3],0.098 Abs. 415 nm
same,"Abs. 415 nm, Abs. (3)",[3],0.089 Abs. 415 nm
same,Mean Abs. 415 nm,[3],0.099 Abs. 415 nm
same,"Abs. 415 nm, Abs. (1)",[4],0.054 Abs. 415 nm
same,"Abs. 415 nm, Abs. (2)",[4],0.05 Abs. 415 nm
same,"Abs. 415 nm, Abs. (3)",[4],0.066 Abs. 415 nm
same,Mean Abs. 415 nm,[4],0.057 Abs. 415 nm
same,"Abs. 415 nm, Abs. (1)",[5],0.345 Abs. 415 nm
same,"Abs. 415 nm, Abs. (2)",[5],0.272 Abs. 415 nm
same,"Abs. 415 nm, Abs. (3)",[5],0.294 Abs. 415 nm
same,Mean Abs. 415 nm,[5],0.304 Abs. 415 nm
same,"Abs. 415 nm, Abs. (1)",[6],0.186 Abs. 415 nm
same,"Abs. 415 nm, Abs. (2)",[6],0.156 Abs. 415 nm
same,"Abs. 415 nm, Abs. (3)",[6],0.161 Abs. 415 nm
same,Mean Abs. 415 nm,[6],0.168 Abs. 415 nm
